Experimental data: article PMC10508222, “Elucidation of the stereocontrol mechanisms of the chemical and biosynthetic intramolecular Diels–Alder cycloaddition for the formation of bioactive decalins” (RSC Advances, 2023)

What was measured:
Test in all cases: purified protein, by the assay type
Settings in all cases: pH 7.5; 25.0 °C
[1] = tested on: C/C=C/C=C/C=C/C[C@@H](C)CC/C=C(\C)C(O)=C1C(=O)C(CO)N(C)C1=O
[2] = tested on: C/C=C/C=C/C=C/C[C@H](C)CC/C=C(\C)C(O)=C1C(=O)C(CO)N(C)C1=O
[3] = substrate: C/C=C/C=C/C=C/C[C@@H](C)CC/C=C(\C)C(O)=C1C(=O)C(CO)N(C)C1=O; remark: listed apart in the source

Molecule	Km [1] [µM]	kcat [1] [s⁻¹]	kcat/Km [1] [M⁻¹ s⁻¹]	Km [2] [µM]	kcat [2] [s⁻¹]	kcat/Km [2] [M⁻¹ s⁻¹]	Km [3] [µM]	kcat [3] [s⁻¹]	kcat/Km [3] [M⁻¹ s⁻¹]
Fsa2 (Fusarium sp. FN080326)	25.07 ± 2.98	1.01 ± 0.048	40200	18.07 ± 4.21	84.2 ± 6.58	4.67e+06	–	–	–
Phm7 (Pyrenochaetopsis sp.) (protein) MSEPTSSSSLDITSNCIIETPLQPSDFLPKSANLFPKFPERISVDSWELWEFDTFDTNGSVAFGCSLYRDARGVEQGGFHAEVNALWPDGTHWGETLYFAVSEVVENSDGTTGGKWLSKDGGSITFHIASDYTAAALDFNVPGKVSGTMELRNHANVSPTSNLPASDAEAQLCPGVYYTFPMGPVATSVTATFSSVGANGESRELFISSGYGGMVRGWSARPWPTFMNDAYYVVAQVGPYMLQILRTLGSVFVQHKPFAVARLYLDGSLVSAANTVVGDELTAHADDVKGDAVRLTKVQPDEKSQGLSGKFRDGNVGYVLEFAKKDSEHGWTFQISHKRAVWSEPTSAPGPDGTGKSGWIEAISGGAKGENYEGHGFGGQLQIPVP	–	–	–	–	–	–	38.21 ± 8.23	1.98	51800
